Measured values taken from patent US20090068110A1, “ANTIBODIES TO INSULIN-LIKE GROWTH FACTOR RECEPTOR” (Genentech, Inc., priority 2006, published 2009).

B1: 9F2: mouse monoclonal anti-IGF-1R antibody from hybridoma 9F2.6.2, ATCC PTA-7018 (antibody, V domains shown)
VH: QIQLVQSGPELKKPGETVKISCKASGYTLANYGMNWVKQAPGKGFKWMGWINTNTGKPTYSDEFKGRFVFSLETSASTAYLLINNLSNEDTATYFCARSIYYYGSRYFNVWGAGTT
VL: DIQMTQSTSSLSASLGDRVTISCRASQDINNYLTWYQQKPDGTVKLLIYYTSRLHSGVPSRFSGSGSGTDYSLTITNLEQEDFATYFCQQGNTLPWTFGEGTKVEIKR
B2: 10H5: mouse monoclonal anti-IGF-1R antibody from hybridoma 10H5.3.4, ATCC PTA-7007 (antibody, V domains shown)
VH: QVQLQQPGAELVKPGASVTLSCKASGYTFTRFWIHWVKQRPGQGLEWIGEINPSNGRTNYNENFKNKATLTVDTSSSTAYMQLSSLTSEVSVVYYCARGGRLDQWGQGTT
VL: DIVMTQSQKFMSTSLGDRVSVTCKASQNVGSNVAWYQQKPGQSPEALIYSASYRYSGVPDRFTGSGSGTDFTLTISNVQSEDLAEYFCHQYNNYPYTFGGGTKVEIKR

How the values were obtained:
[1] = tested on: HELA; assay: cell viability assay, HELA; type: cell-based, human; design: key: +: growth inhibition; −: no or weak effect; conditions: Cervix Adenocarcinoma
Description: (§1) The different cell lines were cultured in their respective culture media at 37° C. in a humidified atmosphere of 5% CO2. Subsequently, cells were detached from tissue-culture flasks using the cell-dissociation solution, TRIPLE SELECT™ solution (InVitrogen, Carlsbad, Calif., USA), and centrifuged at 1000 rpm for five minutes. Detached cells were washed once with PBS, counted, and seeded in 96-well plates (Corning, N.Y., USA) at 2000 cells per well in 100 μL of culture media. After an overnight incubation at 37° C. in a humidified atmosphere of 5% CO2, the cell-culture medium was replaced with 50 μL of starvation medium consisting of serum-free RPMI 1640™ medium without phenol red. The cells were then starved for five hours in the incubator before addition of 25 μL of each anti-IGF-1R monoclonal antibody at various dilutions in serum-free RPMI 1640™ phenol red-free media. Later, 25 μL of phenol red-free RPMI 1640™ media supplemented with 4% of fetal bovine serum (FBS) (Sigma) with or without 4 ng/ml of human recombinant IGF-I were added on top of the 50 μL of antibody. The cells were then placed at 37° C. with 5% CO2 for 5 to 6 days. At the end of the assay, cell viability was measured using the […]-GLO® kit according to the manufacturer's instructions (Promega, Madison, Wis., USA).

[2] = tested on: HT29; assay: cell viability assay, HT29; type: cell-based, human; design: key: +: growth inhibition; −: no or weak effect; conditions: HT29, Colorectal Adenocarcinoma
Description: as §1

[3] = target: T1, IGF-1R (Homo sapiens, UniProt P08069); assay: KIRA assay of IGF-1R phosphorylation in MCF7 cells; type: cell-based; design: IGF-1R is normally localized at the plasma membrane of MCF7 cells; endogenous in cells; host or cells: MCF7; conditions: IGF-I 10 ng/ml or IGF-II 50 ng/ml; ranking upon IGF-II stimulation
Description: Also examined was whether the blocking activity of these antibodies was sufficient to interfere with receptor activation, which is measured by IGF-1R phosphorylation. A KIRA assay (kinase receptor activation) was utilized to perform quantitative analysis of IGF-1R phosphorylation in MCF7 cells. Anti-IGF-1R antibodies in serial dilutions (0.19 to 200 nM in medium) were added to MCF7 cells in 96-well plates for one hour. IGF-I (10 ng/ml) or IGF-11 (50 ng/ml) was subsequently added and incubated for ten minutes. The cells were lysed, and the resulting lysates were transferred to an ELISA plate, which was coated with IGF-1R-capturing antibody 3B7 (250 ng/well). After incubation for two hours, the cell lysate was removed, and the plates were washed. Phosphotyrosine-specific antibody 4G10 (Upstate, Charlottesville, Va., USA) was added to detect IGF-1R phosphorylation through TMB peroxidase substrate.

[4] = target: T1, IGF-1R; assay: BIACORE surface-plasmon resonance, human IGF-1R; type: binding; design: containing the extracellular domain (ECD, amino acids 1-902) tagged with 10 or 12 histidine residues at the carboxyl terminus; His10 or His12 (C); made in house; host or cells: CHO cells; conditions: affinity measurements, FIG. 14
Description: Binding affinities of antibodies to IGF-1R were determined by surface-plasmon resonance measurements on a BIACORE™ 3000 instrument (BIAcore, Inc.). Human IGF-1R-ECD was immobilized at a density of about 500 RU on the flow cells of a PIONEER™ CM5 sensor chip. Immobilization was achieved by random coupling through amino groups using a protocol provided by the manufacturer. Sensorgrams were recorded for binding of anti-IGF-1R Fab or IgG to these surfaces by injection of a series of solutions ranging from 500 nM to 3.1 nM and 250 nM to 0.78 nM in 2-fold increments, respectively. The signal from the reference cell was subtracted from the observed sensorgram. Kinetic constants were calculated by nonlinear regression analysis of the data according to a 1:1 Languir binding model using software supplied by the manufacturer. […]
Binding affinities of selected antibodies to IGF-1R were determined by surface plasmon resonance measurements on a BIACORE™ 3000 instrument (BIAcore, Inc.). […] Sensorgrams were recorded for binding of anti-IGF-1R Fab or IgG to these surfaces by injection of a series of solutions ranging from 500 nM to 3.1 nM and 250 nM to 0.78 nM in two-fold increments, respectively. […] Kinetic constants were calculated by non-linear regression analysis of the data according to a 1:1 Languir binding model using software supplied by the manufacturer.

[5] = tested on: SJCRH30; assay: cell viability assay, SJCRH30; type: cell-based, human; design: key: +: growth inhibition; −: no or weak effect; conditions: SJCRH30, Rhabdomyosarcoma
Description: as §1

[6] = tested on: DLD1; assay: cell viability assay, DLD1; type: cell-based, human; design: key: +: growth inhibition; −: no or weak effect; conditions: DLD1, Colorectal Adenocarcinoma
Description: as §1

Row | Molecule | Effect of IR3, 6D2, 9F2, and 10H5 [1] | Effect of IR3, 6D2, 9F2, and 10H5 [2] | inhibition of IGF-I/II-mediated IGF-1R phosphorylation (KIRA) [3] | binding to human IGF-1R [4] | Effect of IR3, 6D2, 9F2, and 10H5 [5] | Effect of IR3, 6D2, 9F2, and 10H5 [6]
1 | B1 | + | + | most effective group | strong binding to human IGF-1R | + | −
2 | B2 | + | + | most effective group | strong binding to human IGF-1R | + | −
